Here are results for one molecule from article PMC7920261 (Science (New York, N.y.), 2020).

Assay [1] concerns the target T1, SARS-CoV-2 spike receptor-binding domain (RBD) (SARS-CoV-2, UniProt P0DTC2). As to the kind of experiment: ELISA. Particulars: both partners purified. For orientation: In an ELISA, binding on a coated surface is turned into a signal by an enzyme label.
In assay [2] the target is T1, SARS-CoV-2 spike receptor-binding …. As to the kind of experiment: BLI. The following applies: both partners purified.

For orientation: IC50 means the point on the concentration scale where inhibition reaches its midpoint. A higher IC50 goes with a need for much substance. What is called Kd is the constant that tells how readily two partners part at equilibrium. Read a low Kd as tighter binding.

B1: CTC-445.2t (designed binder)
chain: SAEIDLGKGDFREIRASEDAREAAEALAEAARAMKEALEIIREIAEKLRDSSRASEAAKRIAKAIRKAADAIAEAAKIAARAAKDGDAARNAENAARKAKEFAEEQAKLADMYAELAKNGDKSSVLEQLKTFADKAFHEMEDRFYQAALAVFEAAEAAAGGGGSGGSGSGGSGGGSSAEIDLGKGDFREIRASEDAREAAEALAEAARAMKEALEIIREIAEKLRDSSRASEAAKRIAKAIRKAADAIAEAAKIAARAAKDGDAARNAENAARKAKEFAEEQAKLADMYAELAKNGDKSSVLEQLKTFADKAFHEMEDRFYQAALAVFEAAEAAAGGGGSGGSGSGGSGGGSSAEIDLGKGDFREIRASEDAREAAEALAEAARAMKEALEIIREIAEKLRDSSRASEAAKRIAKAIRKAADAIAEAAKIAARAAKDGDAARNAENAARKAKEFAEEQAKLADMYAELAKNGDKSSVLEQLKTFADKAFHEMEDRFYQAALAVFEAAEAAAG
Turning to B1, the IC50 in assay [1] is around 0.01 nM. Moreover, the Kd in assay [2] is around 0.27 nM.
